The RNAGym collection of RNA variant scans (doi:10.7554/elife.80360)

B1: CPEB3 Ribozyme (parent)
chain: GGGGGCCACAGCAGAAGCGUUCACGUCGCGGCCCCUGUCAGAUUCUGGUGAAUCUGCGAAUUCUGCUGU

Variants of: B1
Test: self-cleavage, relative activity (ratio to wild type); higher = more cleavage; co-transcriptional
For G3U C24A, the self-cleavage was 0.0286. G3U C24G showed a self-cleavage of 0.0481. For G3U C24U, the self-cleavage was 0.0674. G3U C27G showed a self-cleavage of 0.0583. G3U C27U gave a self-cleavage of 0.0361. In the case of G3U C29U, the self-cleavage is reported as 0.0459. With G3U C32U the self-cleavage was 0.0936. With G3U C33A the self-cleavage was 0.102. G3U C33U gave a self-cleavage of 0.0906. Variant G3U C34A has a self-cleavage of 0.687. Work on G3U C34U yielded a self-cleavage of 0.381. In the case of G3U C35A, the self-cleavage is reported as 0.0237. In the case of G3U C35G, the self-cleavage is reported as 0.0418. For G3U C39A, the self-cleavage was 0.0589. With G3U C39G the self-cleavage was 0.0714. Variant G3U C39U has a self-cleavage of 0.043. In the case of G3U C45U, the self-cleavage is reported as 0.162. In the case of G3U C54A, the self-cleavage is reported as 0.0729. For G3U C54G, the self-cleavage was 0.0746. G3U C54U showed a self-cleavage of 0.148. Work on G3U C57A yielded a self-cleavage of 0.0577. With G3U C57U the self-cleavage was 0.0383. For G3U C63U, the self-cleavage was 0.114. Variant G3U C66G has a self-cleavage of 0.145. For G3U C66U, the self-cleavage was 0.151. Variant G3U G4A has a self-cleavage of 0.0885. G3U G4C showed a self-cleavage of 0.0209. In the case of G3U G5A, the self-cleavage is reported as 0.0231. Variant G3U G5C has a self-cleavage of 0.0208. G3U G11C showed a self-cleavage of 0.0634. For G3U G14C, the self-cleavage was 0.0411. For G3U G14U, the self-cleavage was 0.0458. For G3U G17C, the self-cleavage was 0.0675. In the case of G3U G17U, the self-cleavage is reported as 0.0304. For G3U G19A, the self-cleavage was 0.0413. Variant G3U G19U has a self-cleavage of 0.0853. In the case of G3U G25C, the self-cleavage is reported as 0.0349. For G3U G28C, the self-cleavage was 0.0382. With G3U G28U the self-cleavage was 0.0309. In the case of G3U G30A, the self-cleavage is reported as 0.0662. Variant G3U G30C has a self-cleavage of 0.0267. For G3U G30U, the self-cleavage was 0.0357. For G3U G31A, the self-cleavage was 0.074. For G3U G31U, the self-cleavage was 0.0468. For G3U G37A, the self-cleavage was 0.0344. With G3U G37C the self-cleavage was 0.035. With G3U G37U the self-cleavage was 0.0515. G3U G41A showed a self-cleavage of 0.0442. Variant G3U G41C has a self-cleavage of 0.0828. G3U G41U showed a self-cleavage of 0.0372. G3U G47C showed a self-cleavage of 0.177. In the case of G3U G47U, the self-cleavage is reported as 0.175. Variant G3U G48A has a self-cleavage of 0.245. Work on G3U G50C yielded a self-cleavage of 0.145. G3U G56C gave a self-cleavage of 0.0723. Variant G3U G56U has a self-cleavage of 0.109. Variant G3U G58A has a self-cleavage of 0.0734. For G3U G58C, the self-cleavage was 0.0675. G3U G65A showed a self-cleavage of 0.171. Work on G3U G65C yielded a self-cleavage of 0.0613. In the case of G3U G68A, the self-cleavage is reported as 0.554. For G3U U20A, the self-cleavage was 0.0443. With G3U U21A the self-cleavage was 0.157. Variant G3U U21C has a self-cleavage of 0.0376. In the case of G3U U21G, the self-cleavage is reported as 0.0385. With G3U U26C the self-cleavage was 0.107. Work on G3U U26G yielded a self-cleavage of 0.0677. In the case of G3U U36C, the self-cleavage is reported as 0.122. Variant G3U U36G has a self-cleavage of 0.135. For G3U U38C, the self-cleavage was 0.0341. For G3U U38G, the self-cleavage was 0.0509. In the case of G3U U43A, the self-cleavage is reported as 0.0999. G3U U43C gave a self-cleavage of 0.0372. G3U U44A gave a self-cleavage of 0.0987. Work on G3U U44C yielded a self-cleavage of 0.127. G3U U44G showed a self-cleavage of 0.115. For G3U U46C, the self-cleavage was 0.105. With G3U U46G the self-cleavage was 0.161. G3U U49A gave a self-cleavage of 0.201. G3U U49C showed a self-cleavage of 0.176. For G3U U53A, the self-cleavage was 0.112. With G3U U53C the self-cleavage was 0.0626. Variant G3U U55C has a self-cleavage of 0.104. In the case of G3U U61A, the self-cleavage is reported as 0.0525. Variant G3U U61C has a self-cleavage of 0.0446. G3U U62A showed a self-cleavage of 0.0711. G3U U62G showed a self-cleavage of 0.108. G3U U64A gave a self-cleavage of 0.128. In the case of G3U U64C, the self-cleavage is reported as 0.132. With G3U U64G the self-cleavage was 0.138. G3U U67A showed a self-cleavage of 0.406. For G3U U69A, the self-cleavage was 0.301. Work on G3U U69C yielded a self-cleavage of 0.46. With G3U U69G the self-cleavage was 0.283. For G4A A8C, the self-cleavage was 0.897. G4A A8G gave a self-cleavage of 0.698. Work on G4A A8U yielded a self-cleavage of 0.86. Work on G4A A10C yielded a self-cleavage of 0.968. With G4A A10G the self-cleavage was 0.868. Variant G4A A13C has a self-cleavage of 0.588. For G4A A13U, the self-cleavage was 0.66. For G4A A15C, the self-cleavage was 0.329. G4A A15G showed a self-cleavage of 0.93. G4A A15U showed a self-cleavage of 0.455. G4A A16G gave a self-cleavage of 0.737. G4A A16U gave a self-cleavage of 0.459. Variant G4A A23G has a self-cleavage of 0.827. Variant G4A A23U has a self-cleavage of 0.886. Variant G4A A40C has a self-cleavage of 0.216. For G4A A42C, the self-cleavage was 0.473. In the case of G4A A42G, the self-cleavage is reported as 0.806. Work on G4A A51U yielded a self-cleavage of 0.804. For G4A A52U, the self-cleavage was 0.882. For G4A A59C, the self-cleavage was 0.32. For G4A A59G, the self-cleavage was 0.749. For G4A A59U, the self-cleavage was 0.283. G4A A60C gave a self-cleavage of 0.217. For G4A A60G, the self-cleavage was 0.475. G4A A60U showed a self-cleavage of 0.264. Variant G4A C6A has a self-cleavage of 0.0589. Work on G4A C7A yielded a self-cleavage of 0.0893. In the case of G4A C7U, the self-cleavage is reported as 0.458. Work on G4A C9A yielded a self-cleavage of 1.03. With G4A C9G the self-cleavage was 1.05. G4A C9U gave a self-cleavage of 0.953. G4A C12A gave a self-cleavage of 0.477. In the case of G4A C12G, the self-cleavage is reported as 0.5. With G4A C18A the self-cleavage was 0.147. In the case of G4A C18G, the self-cleavage is reported as 0.158. Work on G4A C18U yielded a self-cleavage of 0.481. G4A C22G showed a self-cleavage of 0.165. Work on G4A C22U yielded a self-cleavage of 0.157. Work on G4A C24A yielded a self-cleavage of 0.295. G4A C24G gave a self-cleavage of 0.177. For G4A C24U, the self-cleavage was 0.352. With G4A C27A the self-cleavage was 0.212. For G4A C27U, the self-cleavage was 0.19. With G4A C29G the self-cleavage was 0.103. G4A C29U gave a self-cleavage of 0.216. In the case of G4A C32A, the self-cleavage is reported as 0.216. For G4A C33G, the self-cleavage was 0.68. Work on G4A C34A yielded a self-cleavage of 0.31. G4A C34U gave a self-cleavage of 0.627. G4A C35A gave a self-cleavage of 0.175. G4A C35G gave a self-cleavage of 0.162. For G4A C39A, the self-cleavage was 0.521. G4A C39U showed a self-cleavage of 0.544. G4A C45A showed a self-cleavage of 0.808. G4A C45U gave a self-cleavage of 0.909. For G4A C54G, the self-cleavage was 0.388. With G4A C57A the self-cleavage was 0.245. Work on G4A C57G yielded a self-cleavage of 0.217. Variant G4A C57U has a self-cleavage of 0.223. G4A C63U gave a self-cleavage of 0.84. G4A C66A gave a self-cleavage of 0.743. For G4A C66U, the self-cleavage was 0.852. With G4A G5A the self-cleavage was 0.103. With G4A G5C the self-cleavage was 0.113. G4A G11A showed a self-cleavage of 0.672. Variant G4A G11C has a self-cleavage of 0.631. In the case of G4A G11U, the self-cleavage is reported as 0.629. Variant G4A G14C has a self-cleavage of 0.305. G4A G14U gave a self-cleavage of 0.519. Variant G4A G17A has a self-cleavage of 0.175. In the case of G4A G17C, the self-cleavage is reported as 0.0965. With G4A G19C the self-cleavage was 0.11. Work on G4A G19U yielded a self-cleavage of 0.178.
